Where a chain is given by its changes, count along the chain named.
B1: HCV 208B-1096 (antibody, V domains shown)
VH: QVQLQQSGAGLAKPGASVKMSCKASGYTFTANKMHWAKQRPGQGLEWIGYIDPSSGYTEYNHKIQYKATLTADTSSSTAYMQLSTLTFEDSAVYYCTNFAYWGQGTLVTVSA
VL: DIVMTQTPLTLSVTIGQPASISCKSSQSLLFTNGKTYLNWFLQRPGQSPKRLIYLLSKLDSGVPDRFSGSGSGTDFTLKISRVEAEDLGVYYCLQSTYFPLTFGAGTKLELKR
B2: HCV 208B-547 (antibody, V domains shown)
VH: B1 VH with G10E, A31S, H62Q, Q65K, Y66D, T74K, T85S, F88S
VL: EVVLTQSPAITAASLGQKVTITCRASSSVSYMHWYRQKSGTSPQPWIYEISTLASGVPTRFRASGSGTSYSLTISSMEAEDAAIYYCQQWNYPLTFGAGTKLELKR
B3: HCV 208B-589 (antibody, V domains shown)
VH: B1 VH with Y66D, T85S
VL: B1 VL
B4: HCV 208A-352 (antibody, V domains shown)
VH: QGQMQQSGAELVKPGASVKLSCKTSGFTFSSSFISWLKQKPGQSLEWIAWIYAGTGNTNYNQKFTDKAQLTVDTSSSTAYMQFSSLTTEDSAIYYCAISGTGFTYWGQGTLVTVSA
VL: DVLMAQTPLSLPVTLGDQASISCRSSQSLVHSNGNTYLEWFLQKPGQSPKLLIYNVSNRFSGVPDRFSGSGSGTDFTLKISRVEAEDLGVYYCFQGSHVPLTFGSGTKLEIKR
B5: HCV 208B-1024 (antibody, V domains shown)
VH: EVQLVESGGDLVKPGGSLKLSCAASGFTFSNYGMSWVRQTPDKRLEWVATISSGGSYSYYPDSVKGRFTISRDNAKNILYLQMSSLKSEDTAMYYCASLYYGYGDYWGQGTAFTVSS
VL: B4 VL with A5T, T14S, L29I, F41Y, P45L, N55R, L101W, S105G
B6: HCV 208B-281 (antibody, V domains shown)
VH: B4 VH with M4L, F33Y, K40R, N57G, T104I
VL: B4 VL with A5T, T14S, S32N, N55K, L101F
B7: HCV 208A-207 (antibody, V domains shown)
VH: QGQLQQPGAEFVKPGASLKLSCRASGYTFTSYWIHWVKQRPGQGLEWIGEIDPSDSYINQNQKFRGKATLTVDKSSSTAYMELSGLTSEDSAVYYCARHYYGVLDSWGQGTTLTVSS
VL: DIVLTQSPATLSVTPGDRVSLSCRASQRIYNYLHWYQQKSHESPRLLTKYASQSISGIPSRFSGSGSGTDFILTINSVETEDFGMYFCQQSNSWPLTFGAGTKLELRR
B8: HCV 208A-638 (antibody, V domains shown)
VH: B7 VH with I51V, Q62E, E82Q, S84G, G85S, T112A
VL: QIVLTQSPTIMSASLGERVTMTCTASSSVSSSYLHWFQQKPGSSPKLWIYSTSNLASGVPPRFSGSGSGTSYSLSISSVEAEDVATYYCLQFHRSPWTFGGGAKLEIKR
B9: HCV 208B-395 (antibody, V domains shown)
VH: B1 VH with A37T, E59Q, Y66D, T85S
VL: B7 VL with T48I
B10: HCV 208B-612 (antibody, V domains shown)
VH: EVQLQQSGPELVKPGASVKMSCKASGYRFTSYVMHWVRQKPGQGLEWIGYIDPHNDDTKYSEKFRGKATLTSDKSSTTAYMELSSLTSEDSAVYYCVRYSYDRDYSPMDYWGQGTSVTVSS
VL: QIVLTQSPTLMSASPGEKVTMTCSASSTVTYIYWYQQKPGSSPRLWMYDTFNLVSGVPARFSGSRSGTSYFLTISSMEGEDAATYYCQQYSDSPYTFGGGTKLEIKR
B11: HCV 208B-560 (antibody, V domains shown)
VH: EVQLQQSGPELEKPGASVKISCKTSGYTFTEYAMHWVKQSHGMSLEWIGGINPSNGNAIYNQIFKDKATLTVDRSSSTAYMGLRSLTFGDSGVYFCVRRQLDFFDYWGQGASLTVSS
VL: DIVVTQSPASLAVSLGQRATISCRASQSVSTSRYSYLHWYQQKPGQPPKLLIKYASNLESGVPARFSGSGSGTDFTLNIHPVGEEDTATYYCQHSWEFPFTFGSGTKLEIKR
B12: HCV 208A-557 (antibody, V domains shown)
VH: B4 VH with F33Y, F83L
VL: B11 VL with V3A, V4L, L37M, K49E, E97D
B13: HCV 208A-830 (antibody, V domains shown)
VH: EVRLQQPGPEVEKPGASVKISCKTSGYTFTEYAIHWVKQSHGESLEWIGGINPSNGDPIYNQIFKDKATLTVDRSSNTAYMGLRSLTVGDSGVYFCVRRQLDYFDFWGQGASLTVSS
VL: B11 VL with V4L, A25S, T87P
B14: HCV 208A-605 (antibody, V domains shown)
VH: B11 VH with M34I
VL: B11 VL
B15: HCV 208A-222 (antibody, V domains shown)
VH: B11 VH with K19R, M43K, S54N, F103Y
VL: B11 VL
B16: HCV 208B-189 (antibody, V domains shown)
VH: QVHLQQSGAELAKPGASVQMSCKASGYTFTANKMHWARQRPRQGLEWIGYIDPASGYTEYNQKIKDRATLTADKSSSTAYMQLSSLTSEDSAVYYCTNFAYWGQGTLVTVST
VL: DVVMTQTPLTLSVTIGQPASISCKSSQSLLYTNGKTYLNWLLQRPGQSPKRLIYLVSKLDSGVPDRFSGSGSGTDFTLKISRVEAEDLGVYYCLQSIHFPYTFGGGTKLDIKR
B17: HCV 208A-877 (antibody, V domains shown)
VH: QLQQSGPELVKPGASVKISCKTSGYTFTENAMHWVKQSRGKSLEWIGGVNPNNGDTVYTQKFKGKATLTVAKSSSTAYMELRTMTCEESTVYYCASREPDFFDYWGQGSSVTVSS
VL: QIVLTQSPAIMSVSPGEKVSMTCSASSSVTYMHWYQQKSGTSPKRWIYDTSELASGVPARFSGSGSGTTYSLTISSMEAEDAATYYCQQWSNKPLTFGAGTKLELKR

These binders were tested against T1, HCV Core1-169 (hepatitis C virus (HCV-1), UniProt P26664 1-169) (assay: SPR sandwich, capture mAb C11-14).
T1 sequence: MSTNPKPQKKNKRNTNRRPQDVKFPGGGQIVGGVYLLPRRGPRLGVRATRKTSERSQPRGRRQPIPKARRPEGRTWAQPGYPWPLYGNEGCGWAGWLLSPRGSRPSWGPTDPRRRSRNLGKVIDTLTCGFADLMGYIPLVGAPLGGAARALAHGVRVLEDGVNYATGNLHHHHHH
B1 showed an expected percent binding of 16.3%.
For B2, the expected percent binding was 8.2%.
B3 was tested, and the expected percent binding was 9.9%.
B4 showed an expected percent binding of at most 1%.
B5 gave an expected percent binding of 12.2%.
B6 showed an expected percent binding of at most 1%.
B7 showed an expected percent binding of at most 1%.
B8 was tested, and the expected percent binding was 13.3%.
B9 was tested, and the expected percent binding was 7.8%.
B10 showed an expected percent binding of 3.1%.
B11 was tested, and the expected percent binding was 12%.
With B12 the expected percent binding was 17.6%.
Binder B13 has an expected percent binding of 11.7%.
Work on B14 yielded an expected percent binding of 15.8%.
Work on B15 yielded an expected percent binding of 15%.
With B16 the expected percent binding was 2.7%.
Work on B17 yielded an expected percent binding of 10.7%.

These binders were tested against T1, HCV Core1-169 (assay: SPR sandwich, capture mAb C11-3).
Binder B1 has an expected percent binding of 15.1%.
B2 showed an expected percent binding of 7.2%.
In the case of B3, the expected percent binding is reported as 9.4%.
B4 showed an expected percent binding of at most 1%.
In the case of B5, the expected percent binding is reported as 10.9%.
B6 was tested, and the expected percent binding was at most 1%.
Work on B7 yielded an expected percent binding of at most 1%.
Work on B8 yielded an expected percent binding of 14.1%.
In the case of B9, the expected percent binding is reported as 7.6%.
Work on B10 yielded an expected percent binding of 3.8%.
In the case of B11, the expected percent binding is reported as 10.6%.
For B12, the expected percent binding was 17.7%.
In the case of B13, the expected percent binding is reported as 11.9%.
In the case of B14, the expected percent binding is reported as 15.9%.
In the case of B15, the expected percent binding is reported as 15.6%.
For B16, the expected percent binding was 2.3%.
B17 was tested, and the expected percent binding was 9.4%.

These binders were tested against T2, HCV Core 134-171-TT Peptide (hepatitis C virus (HCV-1 numbering) …) (assay: SPR, captured mAb, peptide analyte).
T2 construct: also called ALRZ-9 peptide
For B1, the Kd was 0.46 nM, the koff was 0.0006 s⁻¹ and the kon was 1.3e+06 M⁻¹ s⁻¹.
For B2, the Kd was 3.2 nM, the koff was 0.0049 s⁻¹ and the kon was 1.6e+06 M⁻¹ s⁻¹.
In the case of B3, the Kd is reported as 0.63 nM, the koff is reported as 0.00061 s⁻¹ and the kon is reported as 960000 M⁻¹ s⁻¹.
B4 showed a Kd of 0.52 nM, a koff of 5.4e-05 s⁻¹ and a kon of 100000 M⁻¹ s⁻¹.
With B5 the Kd was 15 nM, the koff was 0.014 s⁻¹ and the kon was 1e+06 M⁻¹ s⁻¹.
B6 was tested, and the Kd was 96 nM, the koff was 0.00025 s⁻¹ and the kon was 2200 M⁻¹ s⁻¹.
B7 was tested, and the Kd was under 0.032 nM, the koff was under 1e-05 s⁻¹ and the kon was 310000 M⁻¹ s⁻¹.
B8 was tested, and the Kd was 0.2 nM, the koff was 0.00053 s⁻¹ and the kon was 2.7e+06 M⁻¹ s⁻¹.
In the case of B9, the Kd is reported as 0.36 nM, the koff is reported as 0.00047 s⁻¹ and the kon is reported as 1.3e+06 M⁻¹ s⁻¹.
In the case of B10, the Kd is reported as 0.35 nM, the koff is reported as 6.5e-05 s⁻¹ and the kon is reported as 180000 M⁻¹ s⁻¹.
B11 gave a Kd of 0.23 nM, a koff of 0.00026 s⁻¹ and a kon of 1.1e+06 M⁻¹ s⁻¹.
For B12, the Kd was 0.091 nM, the koff was 0.00021 s⁻¹ and the kon was 2.4e+06 M⁻¹ s⁻¹.
Binder B13 has a Kd of 0.16 nM, a koff of 0.00054 s⁻¹ and a kon of 3.4e+06 M⁻¹ s⁻¹.
B14 was tested, and the Kd was 0.43 nM, the koff was 0.00037 s⁻¹ and the kon was 870000 M⁻¹ s⁻¹.
B15 showed a Kd of 0.31 nM, a koff of 0.00035 s⁻¹ and a kon of 1.1e+06 M⁻¹ s⁻¹.
B16 was tested, and the Kd was 0.17 nM, the koff was 0.00015 s⁻¹ and the kon was 880000 M⁻¹ s⁻¹.
B17 gave a Kd of 2.2 nM, a koff of 0.0024 s⁻¹ and a kon of 1.1e+06 M⁻¹ s⁻¹.

The binders below were run against T1, HCV Core1-169 (assay: SPR sandwich, capture mAb C11-9).
Work on B1 yielded an expected percent binding of 11.4%.
With B2 the expected percent binding was 4.9%.
B3 gave an expected percent binding of 6.7%.
In the case of B4, the expected percent binding is reported as at most 1%.
For B5, the expected percent binding was 7.1%.
B6 gave an expected percent binding of at most 1%.
B7 gave an expected percent binding of at most 1%.
B8 gave an expected percent binding of 9.2%.
With B9 the expected percent binding was 5.2%.
B10 was tested, and the expected percent binding was at most 1%.
B11 showed an expected percent binding of 8.3%.
Work on B12 yielded an expected percent binding of 13.3%.
Work on B13 yielded an expected percent binding of 7.9%.
For B14, the expected percent binding was 11.9%.
B15 was tested, and the expected percent binding was 10.7%.
For B16, the expected percent binding was at most 1%.
B17 gave an expected percent binding of 5.9%.

The binders below were run against T1, HCV Core1-169 (assay: SPR sandwich, capture mAb C11-7).
In the case of B1, the expected percent binding is reported as 16.9%.
For B2, the expected percent binding was 8.3%.
In the case of B3, the expected percent binding is reported as 11.7%.
With B4 the expected percent binding was at most 1%.
With B5 the expected percent binding was 14.3%.
B6 was tested, and the expected percent binding was at most 1%.
For B7, the expected percent binding was at most 1%.
B8 gave an expected percent binding of 16.9%.
For B9, the expected percent binding was 9.4%.
Work on B10 yielded an expected percent binding of 4.4%.
B11 showed an expected percent binding of 15.5%.
B12 showed an expected percent binding of 21.4%.
Work on B13 yielded an expected percent binding of 14.7%.
Work on B14 yielded an expected percent binding of 19.3%.
B15 gave an expected percent binding of 18.8%.
B16 showed an expected percent binding of 2.9%.
For B17, the expected percent binding was 12.1%.
